# Source: paper PMC8865451
# Target: cs130Fc (human) (UniProt P40189)
# Assay: SPR
substance,measurement,value
hyper-IL-6 (HIL-6),Kd,59 pM
